Experiment [1] addresses SP-44. The experiment can be described thus: Affinity selection MS.
In experiment [2] the target is SP-5. The experiment can be described thus: Affinity selection MS.
Experiment [3] has as its target T1, GST-HDMX (human (HDMX), UniProt O15151 1-134).
T1 chain: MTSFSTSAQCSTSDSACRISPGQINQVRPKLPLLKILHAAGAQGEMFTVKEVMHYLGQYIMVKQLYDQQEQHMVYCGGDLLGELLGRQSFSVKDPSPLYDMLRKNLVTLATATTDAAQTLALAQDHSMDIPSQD
Description: Competition ELISA. (ELISA stands for enzyme-linked immunosorbent assay.)

Where no end group is shown, it is not given here.

Usually Kd stands for the constant that tells how readily two partners part at equilibrium. The low end stands for tighter binding, the high end for weaker binding. One may read the IC50 as the concentration at which inhibition is half-maximal. Low readings indicate greater potency, high ones weaker potency.

B1: GST-hDM2 (other)
chain: MCNTNMSVPTDGAVTTSQIPASEQETLVRPKPLLLKLLKSVGAQKDTYTMKEVLFYLGQYIMTKRLYDEKQQHIVYCSNDLLGDLFGVPSFSVKEHRKIYTMIYRNLVVVNQQESSDSGTSVSENRCHLEGGSDQKDL
B1: the equilibrium dissociation constant (Kd) in experiment [1] and in experiment [2] was 25 nM in each case.

B2: peptide 46 (Table 9), Ac-QSQQTF%r8NLWRLL%QN-NH2 (peptide)
peptide: QSQQTFANLWRLLAQN
modifications: not fully specified (residues 7, 14, N-terminus, C-terminus, bridges)
Consider B2, for which the IC50 in experiment [3] amounted to 175 nM.

B3: GST-hDMX (other)
chain: MTSFSTSAQCSTSDSACRISPGQINQVRPKLPLLKILHAAGAQGEMFTVKEVMHYLGQYIMVKQLYDQQEQHMVYCGGDLLGELLGRQSFSVKDPSPLYDMLRKNLVTLATATTDAAQTLALAQDHSMDIPSQD
For the molecule B3, the values for the Kd in experiment [1] and in experiment [2] were 180 nM and 90 nM, respectively.
